Measured values taken from article PMC4407889, “Improved Catenated Structures of Bovine Peroxiredoxin III F190L Reveal Details of Ring-Ring Interactions and a Novel Conformational State” (PLoS ONE, 2015).

Target: the molecule itself
Assay: crystal structure; reduced form, crystallized in the presence of DTT; sitting-drop vapor diffusion, 16°C, 34% (v/v) 2-methyl-1,3-propanediol, 0.1 M phosphate-citrate pH 4.2; protein 15 mg/ml; space group P2(1)2(1)2; 2.2 Å

B1: bovine peroxiredoxin III F190L (enzyme, UniProt P35705 63-257, looked up)
chain: APAVTQHAPYFKGTAVVSGEFKEISLDDFKGKYLVLFFYPLDFTFVCPTEIIAFSDKASEFHDVNCEVVAVSVDSHFSHLAWINTPRKNGGLGHMNIALLSDLTKQISRDYGVLLEGPGLALRGLFIIDPNGVIKHLSVNDLPVGRSVEETLRLVKAFQFVEAHGEVCPANWTPESPTIKPHPTASREYLEKVNQ
notes: Mitochondrial 2-cys peroxiredoxin III (PrxIII), bovine, lacking its N-terminal 62 amino acid mitochondrial targeting signal; residue 1 is the N-terminal alanine of the mature protein; Construct in pET14b; Twelve chains form one (α2)6 dodecameric toroid, and two toroids interlock as a two-ring catenane in the crystal; In the oxidized form Cys47 of one monomer is disulfide-bonded to Cys168 of its …
B1 was tested, and the “stoichiometry N” value was 12.
